From patent US11692029B2, “Therapy for glaucoma and optic neuropathy by targeting colony stimulating factors” (The Schepens Eye Research Institute, Inc., priority 2018, dated 2023) come the findings set out here.

Entries after “also recorded” stand apart in the source; their conditions may differ.

In experiment [1] the test system is retinal ganglion cells (RGC). Description: RGC loss (anti-Brn3a RGC counts, whole-mount retina) in microbead-induced glaucoma mice. It is filed as in vivo. The settings on record: MB-injected high-IOP mice, intravitreal treatment, versus vehicle/saline-treated mice. The source says: (§1) FIG. 3A is a line graph showing the intraocular pressure (IOP) level at baseline and up to 42 days/6 weeks post-MB injection of mice receiving either intravitreal injections of CSF1R Ab, CSF2, CSF1R Ab+CSF2 or control vehicle at D3 and D7. FIG. 3B is a bar graph showing the ratio of positive scotopic threshold response (pSTR) of glaucoma eye to contralateral normal eye. FIG. 3C is a bar graph showing the contrast sensitivity (CS) of the OMR. FIG. 3D is a bar graph showing Retinal Ganglion Cells (RGC) density of control (Ctr), vehicle (Veh) and CSF1R Ab, CSF2 and CSF2+CSF1 Ab-treated groups. Note Ctr group are the uninjured eyes. FIGS. 3E-3G are photomicrographs of Brn3a+RGCs (red) at 6 week post-injection of microbeads. In these figures (FIGS. 3A-G), ‘#’ and ‘*’ represents statistical analysis comparing to control and vehicle group, respectively. *, ** and *** represent P value <0.05, 0.01 and 0.001, respectively. #, ## and ### represent P value <0.05, <0.01 and <0.001.
(§2) FIG. 7 is a schematic representation showing the experimental design. […]
Microbeads (MB) were injected into the anterior chamber of adult B6 mice to induce high IOP. The expression of CSF1/2 and their receptors was examined by immunostaining and quantitative polymerase chain reaction (qPCR) at different time points after MB injection. […]

The next experiment relates to visual function. The experiment in a line: visual function (contrast sensitivity and visual acuity) in microbead-induced glaucoma mice. It counts as in vivo. Particulars: MB-induced glaucomatous mice, intravitreal treatment, 4 and 6 weeks after MB injection, versus vehicle.
From the text: as §1, with “<0.001. […] FIG. 7 is a schematic representation showing the experimental design. It was hypothesized that inhibiting CSF1 by administration of CSF1R antibody (CSF1R Ab) and/or promoting CSF2 signaling protect RGC against glaucomatous damage. Four experimental groups were proposed: following MB-injection to induce high IOP, mice received treatment of vehicle (PBS), CSF1R Ab, CSF2, or CSF1R Ab+CSF2 were studied. […]” for “<0.001.”

A further experiment relates to retinal function (pSTR). The experiment in a line: positive scotopic threshold response (pSTR) in microbead-induced glaucoma mice. It is filed as in vivo. Particulars: MB-induced glaucomatous mice, intravitreal treatment, 4 and 6 weeks after MB injection, versus vehicle.
From the text: as §1, §2
The function of retinal ganglion cells (RGCs) can be non-invasively assessed in experimental and genetic models of glaucoma by means of variants of the ERG technique that emphasize the activity of inner retina neurons. […]

Another experiment concerns microglia. Description: microglial activation in a glaucoma mouse model. Particulars: intravitreal injection. It is filed as in vivo, mice. The text has this:
Activation of microglia plays a critical role in the progression of neurodegeneration in glaucoma. Colony stimulating factor 1 (CSF1) and colony stimulating factor 2 (CSF2) are involved in glaucomatous neuron loss by regulating microglia function.

The mark [2] stands for this setting: listed as CSF2 recombinant protein.

B1: CSF2: Granulocyte-macrophage colony-stimulating factor recombinant protein; exemplary source Peprotech Recombinant Murine GM-CSF, Cat #: 315-03 (protein, UniProt P01587 18-141, looked up)
Granulocyte-macrophage …: APTRSPITVTRPWKHVEAIKEALNLLDDMPVTLNEEVEVVSNEFSFKKLTCVQTRLKIFEQGLRGNFTKLKGALNMTASYYQTYCPPTPETDCETQVTTYADFIDSLKTFLTDIPFECKKPGQK
With B1, the RGC loss result in experiment [1] was “decreased RGC loss; also recorded: reduced or attenuated glaucomatous RGC loss”; in experiment [1] (setting [2]), “protected the loss of retinal ganglion cells (RGCs)”. Further, the “visual function (vision contrast sensitivity and visual acuity)” value with visual function is “visual function increased”; with visual function (setting [2]) it was “protected the loss of retinal ganglion cells (RGCs) and vision function”. Moreover, in the experiment on retinal function (pSTR), the pSTR amplitude entry is “pSTR increased”. In the experiment with microglia, the microglial activation entry is recorded as “significantly suppressed microglial activation”.
